Data on three molecules can be found in publication PMC9503459, “Antifungal Activity, Structural Stability, and Immunomodulatory Effects on Human Immune Cells of Defensin from the Lentil Lens culinaris” (Membranes, 2022).

No end group written: not given here. Where only a bound is given, the exact number is not on record here.

A short description of data set [1]: CD spectroscopy, secondary structure at different pH and temperature. Particulars: far-UV CD, 30 µM, 10 mM phosphate buffer pH 7.4. The format is physicochemical. The procedure: Circular dichroism spectra were recorded at different temperatures using a J-810 spectropolarimeter (Jasco, Hachioji, Tokyo, Japan) in a 0.1 cm path length quartz cell (Hellma GmbH and Co. KG, Mullheim, Germany) in the 190–250 nm range 0.2 using solutions of Lc-def in 10 mM phosphate buffer, pH 7.4, or 150 mM sodium chloride, pH 2.5, simulated gastric fluid, at a concentration of 30 µM. Lysolipids were added at final concentration of 1 mM.

In data set [2] the test system is proteolytic enzymes of Candida albicans. Briefly: Sensitivity to proteolytic enzymes of Candida albicans (cell lysate, SDS-PAGE). The format is in vitro ADME. Conditions: for stability to proteolysis by yeast: up to 72 h. The procedure: (§1) For study of Lc-def sensitivity to the clinical isolate of C. albicans, lysates of yeast cells in different concentration and pH were used basically as previously described for rhesus macaque θ-defensin 1 [22]. Cells were inoculated onto modified YPD medium and grown at 37 ℃ for 48 h before reaching the stationary phase of growth. Cells were harvested by centrifugation, washed two times in sterile phosphate buffered saline (PBS), pH 7.2, or sterile 40 mM sodium acetate, pH 4.0, and resuspended in the corresponding buffer to final concentrations of 1 × 10^9 cells/mL or 1 × 10^3 cells/mL. Two freeze-thaw cycles in liquid nitrogen were used for cell disruption, and supernatants were collected following centrifugation. Supernatants (12.5 μL) were mixed with water solutions (37.5 μL) of Lc-def, α-casein, Psd1, or LL-37 in concentration of 0.67 mg/mL and incubated at 37 ℃ for 72 or 24 h in the case of high or low cell concentration, respectively. To study the possible influence of Lc-def and Psd1 on the degradation process, supernatants (12.5 μL) were mixed with both α-casein or LL-37 in concentration of 1 mg/mL (25 μL) and Lc-def or Psd1 in concentration of 2 mg/mL (12.5 μL). As negative controls, α-casein and peptides were mixed with buffers as well as supernatants were mixed with water without the proteins. The samples were mixed with sample buffer without β-mercaptoethanol (BME), heated at 100 ℃ for 2 min, and analyzed by sodium dodecyl sulfate polyacrylamide gel electrophoresis (SDS-PAGE). Some independent experiments were performed in each case.

Data set [3] has the same test system. In words: Influence of defensins on degradation of proteins by C. albicans lysate. The format is biochemical. Particulars: C. albicans lysate 10^3 cells/mL, pH 7.2, up to 24 h, SDS-PAGE. The procedure:
as §1

In the next data set the test system is C. albicans. Particulars: at 20 μM; cited from earlier work. The procedure: Here, we investigated an ability of Lc-def to inhibit the growth of clinical isolates of Candida albicans, C. krusei, and C. glabrata. An antifungal activity against Candida species has been shown previously for some plant defensins. For example, the pea defensin Psd1 at the concentration of 20 μM and PvD1 from the common bean at 18.4 μ ...

The subject of data set [4] is pepsin, trypsin, α-chymotrypsin. Briefly: Simulated gastrointestinal digestion in vitro. In kind it is in vitro ADME, porcine pepsin and trypsin, bovine α-chymotrypsin. Particulars: pepsin, 0.1 M HCl pH 2.0 (data not shown). The text has this: Digestive enzymes (porcine pepsin and trypsin, bovine α-chymotrypsin), model protein substrate bovine α-casein, and secondary anti-rabbit IgG polyclonal goat antibodies conjugated to HRP and 3,3′,5,5′-tetramethylbenzidine (TMB) substrates were purchased from Sigma-Aldrich (St. Louis, MO, USA). Synthetic lysophospholipids (lyso-palmitoyl phosphatidylcholine (LPPC), lyso-palmitoyl phosphatidylglycerol (LPPG)) were purchased from Avanti Polar Lipids (Alabaster, AL, USA).
Sensitivity of Lc-def to digestive enzymes was examined by simulation of its gastrointestinal digestion in vitro. Gastric digestion was performed for 2 h, using 50 ng of pepsin per 1 μg of preheated at 100 °C for 30 min and intact Lc-def in 0.1 M HCl, pH 2.0. For duodenal digestion, the pH of the mixture resulting from gastric digestion was adjusted to 8.0 by addition of ammonium bicarbonate. The obtained mixture was incubated for 24 h at 37 °C with 2.5 ng of trypsin and 10 ng of α-chymotrypsin per 1 μg of the defensin. The degree of proteolysis was monitored by SDS-PAGE and RP-HPLC. Gel analysis was performed using Gel Doc XR^+ imaging system (Bio-Rad, Hercules, CA, USA) and Image Lab Software v.6.1.0 (Bio-Rad, Hercules, CA, USA). Some independent experiments were performed in each case. The experiment with α-casein was carried out for comparison.

[5] abbreviates: C. albicans lysate 10^9 cells/mL, 40 mM sodium acetate pH 4.0, 37 °C, SDS-PAGE.

Turning to “Psd1: pea Pisum sativum defensin (UNIPROT P81929), recombinant (KTCEHLADTYRGVCFTNASCDDHCKNKAHLISGTCHNWKCFCTQNC; ends and bridges not checked; cysteine pairing not given here; UniProt P81929 1-46, looked up) [reference compound]”, in data set [1], the “Random, %” value is 30.7%; the “α-Helix, %” value turned out to be 14.8%; the “β-Sheet, %” value turned out to be 31.8%; the “β-Turn, %” value was 22.8%. Besides, in data set [2] (setting [5]), the “stability to proteolysis by yeast” value is “stable”. In addition, the “stability to proteolysis by yeast” value in data set [2] (C. albicans lysate 10^9 cells/mL, PBS pH 7.2, 37 °C, SDS-PAGE, densitometry, immunoblotting) is reported as “stable”. Also, in data set [3], the “influence on the rate of α-casein degradation” value is reported as “but not Psd1 decreased the rate of α-casein degradation”. Further, the “growth inhibition of C. albicans” value in the data set on C. albicans is on record as 100%.
On to `CC[C@H](C)[C@H](NC(=O)[C@H](CCCCN)NC(=O)[C@H](CCC(=O)O)NC(=O)[C@H](CCCCN)NC(=O)[C@H](CO)NC(=O)[C@H](CCCCN)NC(=O)[C@H](CCCNC(=N)N)NC(=O)[C@H](Cc1ccccc1)NC(=O)[C@H](Cc1ccccc1)NC(=O)[C@H](CC(=O)O)NC(=O)CNC(=O)[C@H](CC(C)C)NC(=O)[C@@H](N)CC(C)C)C(=O)NCC(=O)N[C@@H](CCCCN)C(=O)N[C@@H](CCC(=O)O)C(=O)N[C@@H](Cc1ccccc1)C(=O)N[C@@H](CCCCN)C(=O)N[C@@H](CCCNC(=N)N)C(=O)N[C@H](C(=O)N[C@H](C(=O)N[C@@H](CCC(N)=O)C(=O)N[C@@H](CCCNC(=N)N)C(=O)N[C@H](C(=O)N[C@@H](CCCCN)C(=O)N[C@@H](CC(=O)O)C(=O)N[C@@H](Cc1ccccc1)C(=O)N[C@@H](CC(C)C)C(=O)N[C@@H](CCCNC(=N)N)C(=O)N[C@@H](CC(N)=O)C(=O)N[C@@H](CC(C)C)C(=O)N[C@H](C(=O)N1CCC[C@H]1C(=O)N[C@@H](CCCNC(=N)N)C(=O)N[C@H](C(=O)N[C@@H](CCC(=O)O)C(=O)N[C@@H](CO)C(=O)O)[C@@H](C)O)C(C)C)[C@@H](C)CC)C(C)C)[C@@H](C)CC` [LL-37, reference compound], for which the remaining at 24 h, 0.5 mg/mL in data set [2] (Candida albicans cell lysate supernatant (1 × 10^3 cells/mL), C. albicans lysate 10^3 cells/mL, pH 7.2, 37 °C, 24 h, densitometric gel analysis, read-out: intact peptide present in the hydrolysate) is approximately 30%.

B1: α-casein: model protein substrate bovine α-casein (protein, UniProt P02662 16-214, looked up)
Alpha-S1-casein: RPKHPIKHQGLPQEVLNENLLRFFVAPFPEVFGKEKVNELSKDIGSESTEDQAMEDIKQMEAESISSSEEIVPNSVEQKHIQKEDVPSERYLGYLEQLLRLKKYKVPQLEIVPNSAEERLHSMKEGIHAQQKEPMIGVNQELAYFYPELFRQFYQLDAYPSGAWYYVPLGTQYTDAPSFSDIPNPIGSENSEKTTMPLW
In the case of B1, in data set [2] (C. albicans lysate 10^3 cells/mL, pH 7.2, 37 °C, SDS-PAGE), the “time after which the protein band was absent” value is recorded as not above 8 h. The “stability to proteolysis by yeast” value in data set [2] (setting [5]) is “slow”. Moreover, in data set [2] (C. albicans lysate 10^9 cells/mL, pH 7.2, 37 °C, SDS-PAGE), the “time to complete degradation” value is on record as not above 2 h. Further, the “time to almost complete degradation by pepsin” value in data set [4] is recorded as not above 5 min.
